Data on one substance can be found in article doi:10.1101/2020.04.16.045674.

Read-outs that look alike come from different tables or passages of the source.

In test [1] the target is NaChBac (Bacillus halodurans). The test can be described thus: cryo-EM structure.
The target in test [2] is NaChBac (Bacillus halodurans). As to the kind of experiment: cryo-EM structure. The source holds these as a separate data set.

One may read the stoichiometry N as a count of units in the complex or per binding partner.

For NaChBac (natural protein), the stoichiometry N in test [1] and in test [2] was 4 each time.
